From PMC5004290, “Mapping an epitope in EBNA‐1 that is recognized by monoclonal antibodies to EBNA‐1 that cross‐react with dsDNA” (Immunity, Inflammation and Disease, 2016) come the findings set out here.

Assay [1] deals with IgM monoclonal antibody 16D2 to EBNA-1 (mouse). The experiment in a line: ELISA; peptide inhibition ELISA; 16D2 (5 μg/ml) incubated with 0.1 μg/ml to 1 mg/ml of peptide, then transferred to EBNA-1 coated plates, 1 h at 37°C. Background: In an ELISA, binding on a coated surface is turned into a signal by an enzyme label.
For assay [2] the target is unchanged. The experiment in a line: ELISA; peptide inhibition ELISA; 16D2 (5 μg/ml) pre-incubated 1 h at 37°C with 0.1 to 100 μg/ml of peptide, then transferred to dsDNA coated plates, 2 h at 37°C.
For assay [3], the target named is T1, Peptide GL-15 of EBNA-1 (aa 552-566) (Epstein-Barr virus (strain B95-8) …).
T1 construct: EBNA-1 of Epstein Barr virus, aa 552-566; it is surmised from the streptavidin format of the peptide ELISA; source: synthetic peptide
T1 chain: GPLRESIVCYFMVFL
Description: ELISA; anti-peptide ELISA; biotinylated peptide (100 μg/ml), or mole equivalents of biotinylated PFM-15 and biotinylated EBNA-1, on streptavidin coated plates; 3D4 at 5 μg/ml in PBS, 0.1% BSA, 1 h at 37°C. As to conditions: both partners purified.

No end group written: not given here. *: point of attachment. Biotin = O=C1N[C@H]2[C@H](CS[C@H]2CCCCC(=O)*)N1

Chain of IgM monoclonal antibody 16D2 to EBNA-1 (mouse) (heavy, as listed by the source): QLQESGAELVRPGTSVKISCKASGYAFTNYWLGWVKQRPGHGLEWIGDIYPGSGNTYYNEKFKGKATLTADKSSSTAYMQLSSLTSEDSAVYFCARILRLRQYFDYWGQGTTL

The molecule Biotin-PQPGPLRESIVCYFM [Peptide PFM-15 of EBNA-1 (aa 549-563)] registered a percent inhibition of binding to EBNA-1 at 100 μg/ml of peptide in assay [1] of 70%. Moreover, in assay [2], the percent inhibition of binding to dsDNA at 100 μg/ml of peptide was 60%.

B1: IgG monoclonal antibody 3D4 to EBNA-1 (antibody, V domains shown)
VH: LQESGGGLVKPGGSLKLSCAASGFAFSSYDMSWVRQTPEKRLEWVATISSGGSYIYYPDSVKGRFTISRDNARNTLYLQMSSLRSEDTALYYCARPPPFYFDYWGQGTTLTVSS
VL: TQSPLSLPVSLGEQASISCRSSQSLVHSNGNTYLHWYLQKPGQSPKLLIYKVSNRFSGVPDRFSGSGSGTDFTLKISRLEAEDLGFYFCSQTTHVPWTFGGGTK
notes: gamma heavy chain, germline VH7183.14, JH2, 3 mutations; kappa light chain, germline bb1, JK1, 5 mutations; Mouse IgG1 kappa; also called MAb 3D4; source: hybridoma from an EBNA-1 injected mouse; IgG MAbs purified on protein G sepharose columns
On to B1, for which, in assay [3], the binding result is given as “binds”.
